Source: patent publication US20100239594A1 (IBIO, published 2010)

T1: Bacillus anthracis lethal factor (LF) polypeptide (Bacillus anthracis, UniProt P15917 34-809)
T1 sequence: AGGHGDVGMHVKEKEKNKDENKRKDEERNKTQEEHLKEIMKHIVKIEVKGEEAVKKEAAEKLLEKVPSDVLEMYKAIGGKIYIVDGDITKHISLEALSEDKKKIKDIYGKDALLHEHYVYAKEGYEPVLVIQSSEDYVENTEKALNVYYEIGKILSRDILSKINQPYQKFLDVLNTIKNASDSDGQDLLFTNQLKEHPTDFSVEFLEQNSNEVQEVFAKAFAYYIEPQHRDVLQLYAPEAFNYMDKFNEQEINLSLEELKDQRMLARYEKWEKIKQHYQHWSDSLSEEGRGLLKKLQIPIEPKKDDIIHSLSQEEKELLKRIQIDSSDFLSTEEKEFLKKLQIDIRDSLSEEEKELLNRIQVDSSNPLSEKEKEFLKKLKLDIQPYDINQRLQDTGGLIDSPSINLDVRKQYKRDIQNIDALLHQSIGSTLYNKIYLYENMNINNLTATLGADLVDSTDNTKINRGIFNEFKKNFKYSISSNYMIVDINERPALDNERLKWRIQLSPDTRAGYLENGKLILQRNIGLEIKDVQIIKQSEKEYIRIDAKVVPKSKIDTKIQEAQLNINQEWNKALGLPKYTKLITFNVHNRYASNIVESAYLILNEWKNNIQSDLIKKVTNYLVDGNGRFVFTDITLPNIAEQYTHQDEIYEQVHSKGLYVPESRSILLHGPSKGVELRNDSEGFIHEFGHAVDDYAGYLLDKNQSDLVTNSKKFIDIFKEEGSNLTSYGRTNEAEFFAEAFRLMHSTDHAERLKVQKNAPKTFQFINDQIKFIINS

B1: LF-1 huMAb, plant-produced LF antibody (antibody, V domains shown)
VH: EVQLLESGGGLVQPGGSLRLSCSGSGFMFSSYAMSWVRQAPGKGLEWVSGISGSGGTTNYADSVKGRFTISRDNSKNTLYMQMNSLRAEDTAVYYCAKDGVYGRLGGSDYWGQGTLVTVSS
VL: EIVLTQSPDFQSVSPKEKVTITCRASQSVGSSLHWYQQKPDQSPKLLIKYASQSFSGVPSRFSGSGSGTDFTLTINSLETEDAATYYCHQSSSLPLTFGGGTKVEIKR
B2: PA-1 huMAb, plant-produced glycosylated PA antibody (antibody, V domains shown)
VH: QVQLVQSGAEVKKPGASVKVSCKASGYTFTSNAIQWVRQAPGQRLEWVGWINGGDGNTKYSQKFQGRVTISRDISASTAYMELSSLRSEDTAVYYCARHRLQRGGFDPWGQGTLVTVSS
VL: EIVLTQSPGTLSLSPGERATLSCRASQSVSYSSLAWYQQKPGQAPSLLIYGASSRATGIPDRFSGSGSGPDFTLTISRLEPEDFAVYYCQHYGNSPYTFGQGTKLEIKR

Columns and labels:
[1] = target: T1, Bacillus anthracis lethal factor (LF) …; assay: Western blot and ELISA, plant-produced antibody
[2] = target: Bacillus anthracis protective antigen (PA) polypeptide (Bacillus anthracis, UniProt P13423 30-764); assay: Western blot and ELISA, plant-produced antibody
Chain of Bacillus anthracis protective antigen (PA) polypeptide (P13423 30-764 limits assumed): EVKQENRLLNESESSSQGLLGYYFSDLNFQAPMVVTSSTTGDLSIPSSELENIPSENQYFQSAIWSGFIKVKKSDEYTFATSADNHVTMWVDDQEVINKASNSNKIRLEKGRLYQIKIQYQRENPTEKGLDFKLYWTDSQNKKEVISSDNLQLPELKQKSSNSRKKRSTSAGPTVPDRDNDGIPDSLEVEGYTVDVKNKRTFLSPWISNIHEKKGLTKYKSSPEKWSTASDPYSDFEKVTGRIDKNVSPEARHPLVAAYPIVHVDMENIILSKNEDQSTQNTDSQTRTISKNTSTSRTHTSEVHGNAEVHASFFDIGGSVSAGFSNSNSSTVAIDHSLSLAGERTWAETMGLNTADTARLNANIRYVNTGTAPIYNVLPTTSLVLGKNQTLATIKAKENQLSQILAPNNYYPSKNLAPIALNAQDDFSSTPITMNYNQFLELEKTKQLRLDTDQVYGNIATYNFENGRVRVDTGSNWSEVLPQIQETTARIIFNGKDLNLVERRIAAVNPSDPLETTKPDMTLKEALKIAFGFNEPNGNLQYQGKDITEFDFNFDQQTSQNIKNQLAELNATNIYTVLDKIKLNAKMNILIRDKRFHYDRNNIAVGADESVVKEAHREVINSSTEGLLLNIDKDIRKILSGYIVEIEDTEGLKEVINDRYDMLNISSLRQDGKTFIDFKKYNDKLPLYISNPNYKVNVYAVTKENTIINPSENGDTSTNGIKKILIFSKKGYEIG

Row | Binder | binding result [1] | binding result [2]
1 | B1 | binds | –
2 | B2 | – | binds
